For one substance, Ka and EC50 results are on record in patent US20030228303A1.

The target in experiment [1] is denatured SHaPrP 27-30 (Syrian hamster) (UniProt P04273). Briefly: ELISA on denatured PrP 27-30 (FIG. 10).
Experiment [2] deals with non-denatured SHaPrP 27-30 (Syrian hamster) (UniProt P04273). The experiment can be described thus: ELISA on non-denatured PrP 27-30 (FIG. 9). For orientation: An ELISA detects its analyte on a solid surface through an enzyme-linked reagent.
For experiment [3] the target is unchanged. Briefly: estimated from immunoprecipitation (FIG. 12).

A value given as a limit tells only on which side of the number the result lay.

On to 3F4 Fab, for which the Ka in experiment [1] is 1e+08 M⁻¹; in experiment [3], below 1e+07 M⁻¹. Moreover, the EC50 in experiment [2] came out at 2 µg/mL.

A word on the EC50: it is the concentration that produces a half-maximal response.
